Test results as given in the supplement of paper PMC10724198.
± gives the standard deviation of the averaged measurements.

Assays:
Saccharomyces cerevisiae [1] = experiment: protein stability index of tFT-peptide fusion (C-terminal peptide) (PSI (0-1 scale)); higher = more stable (slower turnover)
Procedure: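 MPS profiling in S. cerevisiae of the tFT-X12 degron library: putative degron peptides plus stable controls, 12 aa, fused to the C-terminus of a sfGFP-mCherry timer. Cells are FACS-sorted into 8 mCherry/sfGFP bins and deep-sequenced. PSI runs from 0 (unstable) to 1 (stable). Backgrounds are wild type, das1Δ and doa10Δ at 30 °C, and wild type, das1Δ, cdc34-1 and cdc53-1 at 37 °C; 2-3 technical replicates each.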

Saccharomyces cerevisiae [2] = experiment: as above; settings: genetic background: wild type; temperature: 30 C
[3] = genetic background: cdc34-1, temperature: 37 C
[4] = genetic background: cdc53-1, temperature: 37 C
[5] = genetic background: das1 deletion, temperature: 30 C
[6] = genetic background: das1 deletion, temperature: 37 C
[7] = genetic background: doa10 deletion, temperature: 30 C
[8] = genetic background: wild type, temperature: 30 C
[9] = genetic background: wild type, temperature: 37 C
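Also: PSI is a weighted mean of sequencing reads over stability bins, variants kept only with over 10 reads, mCherry proximal and sfGFP distal, peptide attached via GGGS linker.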

Sequence | protein stability index (Saccharomyces cerevisiae [1]; [3]) | protein stability index (Saccharomyces cerevisiae [1]; [4]) | protein stability index (Saccharomyces cerevisiae [1]; [5]) | protein stability index (Saccharomyces cerevisiae [1]; [6]) | protein stability index (Saccharomyces cerevisiae [1]; [7]) | protein stability index (Saccharomyces cerevisiae [1]; [8]) | protein stability index (Saccharomyces cerevisiae [1]; [9]) | protein stability index (Saccharomyces cerevisiae [2])
RFFFASRYIECF | 0.181 ± 0.0096 | 0.173 ± 0.027 | 0.216 ± 0.014 | 0.354 ± 0.013 | 0.187 ± 0.0019 | 0.22 ± 0.036 | 0.281 ± 0.028 | 0.416 ± 0.11
ALLVLTVSYVFS | 0.045 ± 0.011 | 0.0772 ± 0.044 | 0.0924 ± 0.028 | 0.188 ± 0.0081 | 0.057 ± 0.035 | 0.0839 ± 0.013 | 0.153 ± 0.031 | 0.167 ± 0.022
SVLVWVFGLFVI | 0.411 ± 0.012 | 0.525 ± 0.013 | 0.431 ± 0.024 | 0.56 ± 0.012 | 0.42 ± 0.028 | 0.392 ± 0.028 | 0.495 ± 0.015 | 0.446 ± 0.012
VVIWWFSAVVSV | 0.0446 ± 0.0021 | 0.138 ± 0.026 | 0.0727 ± 0.021 | 0.2 ± 0.013 | 0.0495 ± 0.014 | 0.0622 ± 0.026 | 0.165 ± 0.0031 | 0.148 ± 0.036
VVISRVLAIRLL | 0.5452 ± 0.00094 | 0.6095 ± 0.0003 | 0.5 ± 0.027 | 0.6173 ± 0.002 | 0.1324 ± 0.0013 | 0.137 ± 0.028 | 0.228 ± 0.042 | 0.237 ± 0.0063
LSGDIPWSFVPV | 0.743 ± 0.04 | 0.766 ± 0.046 | 0.654 ± 0.011 | 0.787 ± 0.02 | 0.673 ± 0.028 | 0.677 ± 0.031 | 0.75756 ± 0.0002 | 0.738 ± 0.033
FFAIFSLLLSFT | 0.449 ± 0.015 | 0.482 ± 0.0083 | 0.401 ± 0.028 | 0.532 ± 0.012 | 0.399 ± 0.007 | 0.4 ± 0.014 | 0.527 ± 0.0072 | 0.459 ± 0.026
FNLFWPVSAFVV | 0.506 ± 0.061 | 0.563 ± 0.011 | 0.436 ± 0.03 | 0.5749 ± 0.0047 | 0.211 ± 0.0037 | 0.254 ± 0.0078 | 0.398 ± 0.044 | 0.374 ± 0.019
YVQTKKTRYVLV | 0.483 ± 0.027 | 0.506 ± 0.027 | 0.383 ± 0.025 | 0.543 ± 0.011 | 0.32 ± 0.0047 | 0.343 ± 0.018 | 0.5038 ± 0.0023 | 0.454 ± 0.055
FGCLFILRCSFL | 0.429 ± 0.047 | 0.487 ± 0.00067 | 0.349 ± 0.035 | 0.5384 ± 0.00075 | 0.29 ± 0.0031 | 0.304 ± 0.026 | 0.4966 ± 0.0043 | 0.422 ± 0.0099
VLVSYAIVILYL | 0.128 ± 0.0017 | 0.141 ± 0.03 | 0.136 ± 0.043 | 0.293 ± 0.029 | 0.12 ± 0.008 | 0.149 ± 0.019 | 0.268 ± 0.026 | 0.193 ± 0.002
WVVVGWVGVGFR | 0.508 ± 0.029 | 0.548 ± 0.038 | 0.383 ± 0.027 | 0.5747 ± 0.0021 | 0.361 ± 0.019 | 0.378 ± 0.016 | 0.55387 ± 0.00053 | 0.445 ± 0.029
GVVVGVLLVCGW | 0.268 ± 0.028 | 0.435 ± 0.0061 | 0.28 ± 0.037 | 0.489 ± 0.0051 | 0.223 ± 0.016 | 0.265 ± 0.013 | 0.4614 ± 0.0016 | 0.36 ± 0.0081
KEKKKTKHNKIG | 0.587 ± 0.059 | 0.7521 ± 0.0072 | 0.631 ± 0.014 | 0.742 ± 0.011 | 0.184 ± 0.029 | 0.155 ± 0.032 | 0.314 ± 0.02 | 0.216 ± 0.038
WLVIWPRKLSTV | 0.588 ± 0.039 | 0.632 ± 0.005 | 0.477 ± 0.027 | 0.6179 ± 0.0036 | 0.359 ± 0.014 | 0.397 ± 0.022 | 0.573 ± 0.031 | 0.481 ± 0.0083
WRLRIAAVVRSS | 0.556 ± 0.047 | 0.655 ± 0.031 | 0.586 ± 0.011 | 0.6471 ± 0.0012 | 0.123 ± 0.0017 | 0.142 ± 0.021 | 0.287 ± 0.016 | 0.281 ± 0.028
RWSEHGFLVFLS | 0.643 ± 0.022 | 0.736 ± 0.012 | 0.664 ± 0.016 | 0.7408 ± 0.0018 | 0.156 ± 0.015 | 0.158 ± 0.015 | 0.373 ± 0.04 | 0.301 ± 0.021
GCGWVFWVVDWG | 0.463 ± 0.017 | 0.566 ± 0.0098 | 0.402 ± 0.028 | 0.563 ± 0.0075 | 0.369 ± 0.01 | 0.398 ± 0.027 | 0.539 ± 0.026 | 0.4431 ± 0.0038
LLRFFPCFLGVN | 0.653 ± 0.018 | 0.6962 ± 0.0039 | 0.657 ± 0.043 | 0.701 ± 0.012 | 0.43 ± 0.023 | 0.425 ± 0.032 | 0.579 ± 0.021 | 0.484 ± 0.022
AFPSSVILMVFS | 0.323 ± 0.036 | 0.32 ± 0.034 | 0.29 ± 0.032 | 0.425 ± 0.0063 | 0.228 ± 0.0063 | 0.287 ± 0.018 | 0.3872 ± 0.0029 | 0.332 ± 0.019
LGVVVGGVRGVG | 0.43 ± 0.04 | 0.49 ± 0.0086 | 0.461 ± 0.012 | 0.505 ± 0.0054 | 0.467 ± 0.012 | 0.46 ± 0.025 | 0.4913 ± 0.0033 | 0.448 ± 0.045
FYFRSSFFTICF | 0.36 ± 0.038 | 0.3875 ± 0.0025 | 0.365 ± 0.033 | 0.46 ± 0.0018 | 0.4318 ± 0.0037 | 0.352 ± 0.014 | 0.446 ± 0.017 | 0.398 ± 0.024
WSMSSPPLLLAS | 0.314 ± 0.014 | 0.301 ± 0.017 | 0.272 ± 0.017 | 0.377 ± 0.0019 | 0.22 ± 0.0085 | 0.276 ± 0.013 | 0.349 ± 0.019 | 0.36 ± 0.0058
FPFFLLAAPFLA | 0.564 ± 0.007 | 0.621 ± 0.0096 | 0.546 ± 0.019 | 0.6439 ± 0.0013 | 0.16 ± 0.0077 | 0.19 ± 0.026 | 0.295 ± 0.026 | 0.237 ± 0.036
LEYCLATYLSAC | 0.3382 ± 0.00047 | 0.435 ± 0.013 | 0.25 ± 0.035 | 0.43854 ± 0.00041 | 0.211 ± 0.0025 | 0.248 ± 0.016 | 0.4386 ± 0.00068 | 0.378 ± 0.0073
FFRLFAPLLVVL | 0.113 ± 0.02 | 0.0677 ± 0.015 | 0.188 ± 0.028 | 0.23 ± 0.033 | 0.2621 ± 0.0019 | 0.178 ± 0.019 | 0.1836 ± 0.0014 | 0.212 ± 0.01
CLLSRYRVFFLG | 0.629 ± 0.071 | 0.7205 ± 0.0048 | 0.591 ± 0.023 | 0.706 ± 0.026 | 0.134 ± 0.014 | 0.184 ± 0.026 | 0.351 ± 0.017 | 0.29 ± 0.056
QRFASFFFLHLS | 0.411 ± 0.069 | 0.504 ± 0.061 | 0.585 ± 0.012 | 0.6374 ± 0.0022 | 0.157 ± 0.028 | 0.142 ± 0.036 | 0.251 ± 0.011 | 0.227 ± 0.0046
VFRLLALLWRFF | 0.606 ± 0.01 | 0.695 ± 0.018 | 0.62 ± 0.031 | 0.767 ± 0.029 | 0.323 ± 0.037 | 0.31 ± 0.022 | 0.42 ± 0.012 | 0.325 ± 0.056
RVGGVVVLGCVG | 0.645 ± 0.03 | 0.711 ± 0.02 | 0.549 ± 0.013 | 0.684 ± 0.02 | 0.555 ± 0.027 | 0.5598 ± 0.0053 | 0.67072 ± 0.0004 | 0.476 ± 0.0028
